First the molecules themselves.
B1: RPS21 (parent)
chain: AEVSWEPGRREGCDICAGKAGCPI
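Further: lentivirally expressed fusions sorted by FACS into six bins by GFP to DsRed ratio, PSI derived from sequencing read proportions per bin multiplied by bin number.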

In this data set the parent is B1. Description: protein stability index of a GFP-peptide fusion (GPS, HEK-293T) (PSI 1-6); higher = more stable. The note with it: c terminus: a fixed tail appended.
Regarding AEVSMEPGRREGCDICAGKAGCPI [W5M], the protein stability index is 3.06.
AEVSLEPGRREGCDICAGKAGCPI [W5L]: the protein stability index was 3.12.
As for AEVSREPGRREGCDICAGKAGCPI [W5R], the protein stability index amounted to 3.04.
Regarding AEVSQEPGRREGCDICAGKAGCPI [W5Q], the protein stability index was 4.19.
Regarding AEVSTEPGRREGCDICAGKAGCPI [W5T], the protein stability index was 4.04.
For the variant AEVSSEPGRREGCDICAGKAGCPI [W5S], the protein stability index was 4.06.
Turning to AEVSKEPGRREGCDICAGKAGCPI [W5K], the protein stability index turned out to be 4.84.
As to AEVSDEPGRREGCDICAGKAGCPI [W5D], the protein stability index is 4.85.
For AEVSCEPGRREGCDICAGKAGCPI [W5C], the protein stability index is 4.24.
Under AEVSIEPGRREGCDICAGKAGCPI [W5I] stands 3.7.
As for AEVSEEPGRREGCDICAGKAGCPI [W5E], the protein stability index is 4.64.
Take AEVSPEPGRREGCDICAGKAGCPI [W5P]: the protein stability index was 5.67.
For the variant AEVSVEPGRREGCDICAGKAGCPI [W5V], the protein stability index is 4.44.
With AEVSFEPGRREGCDICAGKAGCPI [W5F], the protein stability index is 3.53.
Take AEVSYEPGRREGCDICAGKAGCPI [W5Y]: the protein stability index was found to be 2.91.
Under AEVSWEPGRGEGCDICAGKAGCPI [R10G] stands 2.52.
Under AEVSWEPGRKEGCDICAGKAGCPI [R10K] stands 3.32; under AEVSWEPGRCEGCDICAGKAGCPI [R10C], 3.8; under AEVSWEPGRTEGCDICAGKAGCPI [R10T], 3.2.
AEVSWEPGRAEGCDICAGKAGCPI [R10A]: the protein stability index was determined as 3.49.
Consider AEVSWEPGRYEGCDICAGKAGCPI [R10Y], for which the protein stability index is 4.13.
In the case of AEVSWEPGRHEGCDICAGKAGCPI [R10H], the protein stability index worked out at 4.11.
Consider AEVSWEPGRFEGCDICAGKAGCPI [R10F], for which the protein stability index amounted to 2.46.
As for AEVSWEPGREEGCDICAGKAGCPI [R10E], the protein stability index came out at 2.81.
In the case of AEVSWEPGRNEGCDICAGKAGCPI [R10N], the protein stability index is 3.47.
Under AEVSWEPGRVEGCDICAGKAGCPI [R10V] stands 2.69; under AEVSWEPGRPEGCDICAGKAGCPI [R10P], 1.9; under AEVSWEPGRQEGCDICAGKAGCPI [R10Q], 3.09.
On to AEVSWEPGRSEGCDICAGKAGCPI [R10S], for which the protein stability index was 3.14.
As for AEVSWEPGRIEGCDICAGKAGCPI [R10I], the protein stability index turned out to be 2.91.
Take AEVSWEPGRLEGCDICAGKAGCPI [R10L]: the protein stability index turned out to be 2.84.
As to AEVSWEPGRRPGCDICAGKAGCPI [E11P], the protein stability index came out at 2.92.
Consider AEVSWEPGRRWGCDICAGKAGCPI [E11W], for which the protein stability index came to 2.13.
For AEVSWEPGRRTGCDICAGKAGCPI [E11T], the protein stability index worked out at 2.87.
With AEVSWEPGRRDGCDICAGKAGCPI [E11D], the protein stability index amounted to 3.37.
As for AEVSWEPGRRHGCDICAGKAGCPI [E11H], the protein stability index is 3.53.
With AEVSWEPGRRIGCDICAGKAGCPI [E11I], the protein stability index came to 2.56.
Take AEVSWEPGRRCGCDICAGKAGCPI [E11C]: the protein stability index was 3.22.
Turning to AEVSWEPGRRKGCDICAGKAGCPI [E11K], the protein stability index was found to be 2.6.
Take AEVSWEPGRRLGCDICAGKAGCPI [E11L]: the protein stability index was determined as 2.46.
With AEVSWEPGRRNGCDICAGKAGCPI [E11N], the protein stability index was 2.55.
AEVSWEPGRRSGCDICAGKAGCPI [E11S]: the protein stability index amounted to 2.96.
Turning to AEVSWEPGRRGGCDICAGKAGCPI [E11G], the protein stability index worked out at 1.99.
Take AEVSWEPGRRFGCDICAGKAGCPI [E11F]: the protein stability index was 4.96.
As to AEVSWEPGRRAGCDICAGKAGCPI [E11A], the protein stability index is 1.95.
With AEVSWEQGRREGCDICAGKAGCPI [P7Q], the protein stability index worked out at 2.6.
On to AEVSWEHGRREGCDICAGKAGCPI [P7H], for which the protein stability index amounted to 3.92.
Turning to AEVSWEIGRREGCDICAGKAGCPI [P7I], the protein stability index worked out at 2.97.
For the variant AEVSWEEGRREGCDICAGKAGCPI [P7E], the protein stability index was determined as 4.
For AEVSWEFGRREGCDICAGKAGCPI [P7F], the protein stability index is 2.21.
For the variant AEVSWERGRREGCDICAGKAGCPI [P7R], the protein stability index came out at 2.53.
Under AEVSWECGRREGCDICAGKAGCPI [P7C] stands 2.69; under AEVSWEYGRREGCDICAGKAGCPI [P7Y], 2.9.
AEVSWEVGRREGCDICAGKAGCPI [P7V]: the protein stability index came out at 2.23.
As to AEVSWESGRREGCDICAGKAGCPI [P7S], the protein stability index came out at 2.77.
Regarding AEVSWEPGWREGCDICAGKAGCPI [R9W], the protein stability index came to 2.67.
Under AEVSWEPGTREGCDICAGKAGCPI [R9T] stands 3.67.
Regarding AEVSWEPGQREGCDICAGKAGCPI [R9Q], the protein stability index turned out to be 3.75.
Then AEVSWEPGAREGCDICAGKAGCPI [R9A], with 3.95; and AEVSWEPGLREGCDICAGKAGCPI [R9L], with 3.49.
AEVSWEPGFREGCDICAGKAGCPI [R9F]: the protein stability index amounted to 3.89.
On to AEVSWEPGMREGCDICAGKAGCPI [R9M], for which the protein stability index was 3.02.
Turning to AEVSWEPGNREGCDICAGKAGCPI [R9N], the protein stability index is 3.35.
Take AEVSWEPGPREGCDICAGKAGCPI [R9P]: the protein stability index worked out at 3.26.
With AEVSWEPGDREGCDICAGKAGCPI [R9D], the protein stability index was determined as 4.04.
Then AEVSWEPGYREGCDICAGKAGCPI [R9Y], with 3.1; and AEVSWEPGIREGCDICAGKAGCPI [R9I], with 3.14.
With AEVSWEPPRREGCDICAGKAGCPI [G8P], the protein stability index was found to be 3.24.
Turning to AEVSWEPWRREGCDICAGKAGCPI [G8W], the protein stability index was determined as 2.01.
Take AEVSWEPCRREGCDICAGKAGCPI [G8C]: the protein stability index stood at 3.67.
Turning to AEVSWEPIRREGCDICAGKAGCPI [G8I], the protein stability index stood at 2.78.
Then AEVSWEPRRREGCDICAGKAGCPI [G8R], with 2.77; and AEVSWEPQRREGCDICAGKAGCPI [G8Q], with 3.99; and AEVSWEPTRREGCDICAGKAGCPI [G8T], with 2.72.
Turning to AEVSWEPKRREGCDICAGKAGCPI [G8K], the protein stability index came to 3.03.
Under AEVSWEPFRREGCDICAGKAGCPI [G8F] stands 2.46.
Take AEVSWEPYRREGCDICAGKAGCPI [G8Y]: the protein stability index was 1.74.
Consider AEVSWEPMRREGCDICAGKAGCPI [G8M], for which the protein stability index stood at 2.59.
Regarding AEVSWEPNRREGCDICAGKAGCPI [G8N], the protein stability index amounted to 3.41.
In the case of AEVSWEPHRREGCDICAGKAGCPI [G8H], the protein stability index came to 2.54.
Take AEVSWMPGRREGCDICAGKAGCPI [E6M]: the protein stability index came out at 2.6.
Regarding AEVSWTPGRREGCDICAGKAGCPI [E6T], the protein stability index was 2.79.
For AEVSWYPGRREGCDICAGKAGCPI [E6Y], the protein stability index was 1.76.
Regarding AEVSWWPGRREGCDICAGKAGCPI [E6W], the protein stability index amounted to 1.56.
As for AEVSWVPGRREGCDICAGKAGCPI [E6V], the protein stability index came to 2.66.
As for AEVSWNPGRREGCDICAGKAGCPI [E6N], the protein stability index turned out to be 3.49.
As to AEVSWQPGRREGCDICAGKAGCPI [E6Q], the protein stability index turned out to be 2.78.
Turning to AEVSWRPGRREGCDICAGKAGCPI [E6R], the protein stability index was 3.04.
AEVSWPPGRREGCDICAGKAGCPI [E6P]: the protein stability index is 3.
Take AEVSWFPGRREGCDICAGKAGCPI [E6F]: the protein stability index was determined as 2.14.
As for AEVSWHPGRREGCDICAGKAGCPI [E6H], the protein stability index was 5.82.
Then AEVSWIPGRREGCDICAGKAGCPI [E6I], with 2.
Take AEVSWCPGRREGCDICAGKAGCPI [E6C]: the protein stability index was 2.23.
With AEVSWGPGRREGCDICAGKAGCPI [E6G], the protein stability index was 2.36.

The record behind these values is the supplement of paper PMC10567573.
